Assay results published in patent US20160251695.

T1: α-fructosyl-valyl-histidyl-leucyl-threonyl-proryl-glutamic acid
T1 chain: VHLTPE

T2: α-fructosyl-valyl-histidine
T2 chain: VH

B1: CFP-T7 (protein)
chain: MTSNRADTRVIVVGGGGTIGSSTALHLVRSGYAPANITVLDTFEIPSAQSAGHDLNKIMGIRLRNKVDLQMSLEARQMWKEDELFQPFFHNTGRMDCEHTPEGIEDLKKQYQALHDAGAGLEKTHAWLDNEDEILSKMPLLQRDQIQGWKAIWSQDGGWLAAAKAINAIGQFLKERGVKFGFGGAGSFKQPLFDDEGTTCIGVETADGTKYYADKVVLAAGAWSPTLVDLEDQCCSKAWVYAHIQLTPEEAAEYKGVPVVYNGEFGFFFEPDEFGVIKVCDEFPGFSRFKEHQPYGAPSPKRISVPRSHAKHPTDTYPDASEVSIKKAIATFLPRFQDKELFNRALCWCTDTADAALLMCEHPKWKNFILATGDSGHSFKILPNVGKYVVELIEGRLPEEMAYQWRWRPGGDALKSRRAAPPKDLADMPGWKHDPKL
B2: CFP-T7-H1 (protein)
chain: MTSNRADTRVIVVGGGGTIGSSTALHLVRSGYAPANITVLDTFEIPSAQSAGHDLNKIMGIALRNKVDLQMSLEARQMWKEDELFQPFFHNTGRMDCEHTPEGIEDLKKQYQALHDAGAGLEKTHAWLDNEDEILSKMPLLQRDQIQGWKAIWSQDGGWLAAAKAINAIGQFLKERGVKFGFGGAGSFKQPLFDDEGTTCIGVETADGTKYYADKVVLAAGAWSPTLVDLEDQCCSKAWVYAHIQLTPEEAAEYKGVPVVYNGEFGFFFEPDEFGVIKVCDEFPGFSRFKEHQPYGAPSPKRISVPRSHAKHPTDTYPDASEVSIKKAIATFLPRFQDKELFNRALCWCTDTADAALLMCEHPKWKNFILATGDSGHSFKILPNVGKYVVELIEGRLPEEMAYQWRWRPGGDALKSRRAAPPKDLADMPGWKHDPKL
B3: CFP-T7-H21 (protein)
chain: MTSNRADTRVIVVGGGGTIGSSTALHLVRSGYAPANITVLDTFEIPSAQSAGHDLNKIMGIDLRNKVDLQMSLEARQMWKEDELFQPFFHNTGRMDCEHTPEGIEKLKKLYQRLHDAGAGLEKTHAWLDNEDEILSKMPLLQRDQIQGWKAIWSQDGGWLAAAKAINAIGQFLKERGVKFGFGGAGSFKQPLFDDEGTTCIGVETADGTKYYADKVVLAAGAWSPTLVDLEDQCCSKAWVYAHIQLTPEEAAEYKGVPVVYNGEFGFFFEPDEFGVIKVCDEFPGFSRFKEHQPYGAPSPKRISVPRSHAKHPTDTYPDASEVSIKKAIATFLPRFQDKELFNRALCWCTDTADAALLMCEHPKWKNFILATGDSGHSFKILPNVGKYVVELIEGRLPEEMAYQWRWRPGGDALKSRRAAPPKDLADMPGWKHDPKL
B4: CFP-T7-H35 (protein)
chain: MTSNRADTRVIVVGGGGTIGSSTALHLVRSGYAPANITVLDTFEIPSAQSAGHDLNKIMGIDHRNKVDLQMSLEARQMWKEDELFQPFFHNTGRMDCEHTPKGIEKLKKLYQKLHDAGAGLEKTHAWLDNEDEILSKMPLLQRDQIQGWKAIWSQDGGWLAAAKAINAIGQFLKERGVKFGFGGAGSFKQPLFDDEGTTCIGVETADGTKYYADKVVLAAGAWSPTLVDLEDQCCSKAWVYAHIQLTPEEAAEYKGVPVVYNGEFGFFFEPDEFGVIKVCDEFPGFSRFKEHQPYGAPSPKRISVPRSHAKHPTDTYPDASEVSIKKAIATFLPRFQDKELFNRALCWCTDTADSALLMCEHPKWKNFILATGDSGHSFKILPNVGKYVVELIEGRLPEEMAYQWRWRPGGDALKSRRAAPPKDLADMPGWKHDPKL
B5: CFP-T7-H4 (protein)
chain: MTSNRADTRVIVVGGGGTIGSSTALHLVRSGYAPANITVLDTFEIPSAQSAGHDLNKIMGIALRNKVDLQMSLEARQMWKEDELFQPFFHNTGRMDCEHTPEGIEDLKKYYQALHDAGAGLEKTHAWLDNEDEILSKMPLLQRDQIQGWKAIWSQDGGWLAAAKAINAIGQFLKERGVKFGFGGAGSFKQPLFDDEGTTCIGVETADGTKYYADKVVLAAGAWSPTLVDLEDQCCSKAWVYAHIQLTPEEAAEYKGVPVVYNGEFGFFFEPDEFGVIKVCDEFPGFSRFKEHQPYGAPSPKRISVPRSHAKHPTDTYPDASEVSIKKAIATFLPRFQDKELFNRALCWCTDTADAALLMCEHPKWKNFILATGDSGHSFKILPNVGKYVVELIEGRLPEEMAYQWRWRPGGDALKSRRAAPPKDLADMPGWKHDPKL
B6: CFP-T7-H20 (protein)
chain: MTSNRADTRVIVVGGGGTIGSSTALHLVRSGYAPANITVLDTFEIPSAQSAGHDLNKIMGIDLRNKVDLQMSLEARQMWKEDELFQPFFHNTGRMDCEHTPEGIEKLKKLYQKLHDAGAGLEKTHAWLDNEDEILSKMPLLQRDQIQGWKAIWSQDGGWLAAAKAINAIGQFLKERGVKFGFGGAGSFKQPLFDDEGTTCIGVETADGTKYYADKVVLAAGAWSPTLVDLEDQCCSKAWVYAHIQLTPEEAAEYKGVPVVYNGEFGFFFEPDEFGVIKVCDEFPGFSRFKEHQPYGAPSPKRISVPRSHAKHPTDTYPDASEVSIKKAIATFLPRFQDKELFNRALCWCTDTADAALLMCEHPKWKNFILATGDSGHSFKILPNVGKYVVELIEGRLPEEMAYQWRWRPGGDALKSRRAAPPKDLADMPGWKHDPKL
B7: CFP-T7-62D (protein)
chain: MTSNRADTRVIVVGGGGTIGSSTALHLVRSGYAPANITVLDTFEIPSAQSAGHDLNKIMGIDLRNKVDLQMSLEARQMWKEDELFQPFFHNTGRMDCEHTPEGIEDLKKQYQALHDAGAGLEKTHAWLDNEDEILSKMPLLQRDQIQGWKAIWSQDGGWLAAAKAINAIGQFLKERGVKFGFGGAGSFKQPLFDDEGTTCIGVETADGTKYYADKVVLAAGAWSPTLVDLEDQCCSKAWVYAHIQLTPEEAAEYKGVPVVYNGEFGFFFEPDEFGVIKVCDEFPGFSRFKEHQPYGAPSPKRISVPRSHAKHPTDTYPDASEVSIKKAIATFLPRFQDKELFNRALCWCTDTADAALLMCEHPKWKNFILATGDSGHSFKILPNVGKYVVELIEGRLPEEMAYQWRWRPGGDALKSRRAAPPKDLADMPGWKHDPKL
B8: CFP-DH2 (protein)
chain: MTSNRADTRVIVVGGGGTIGSSTALHLVRSGYAPANITVLDTFPIPSAQSAGHDLNKIMGIDHRNKVNLQMSLEARQMWKEDELFQPFFHNTGRMDCEHTPKGIEKLKKLYQKLHDAGAGLEKTHAWLDNEDAILSKMPLLQRDQIQGWKAIWSQDGGWLAAAKAINAIGQFLKERGVKFGFGGAGSFKQPLFDDEGTTCIGVETADGTKYYADKVVLAAGAWSPTLVDLEDQCCSKAWVYAHIQLTPEEAAKYKGCPVVYHGEFGFFFEPDEFGVIKVCDEFPGFSRFKEHQPYGAPSPKRISVPRSHAKHPTDTYPDASEVSIKKAIATFLPRFKDKPLFNRALCWCTDTADSTLLMCEHPKWKNFILATGDSGHSFKILPNVGKYVVELIEGRLPEEMAYQWRWRPGGDALKSRRAAPPKDLADMPGWKHD
B9: EFP-T5-62D/63H/106K/110L/113K/355S (protein)
chain: MAHSRASTKVVVVGGGGTIGSSTALHLIRSGYTPSNITVLDVYKTPSLQSAGHDLNKIMGIDHRNGPDLQLSLESLDMWQNDELFKPFFHQVGMIDCSSSKEGIEKLRRLYQKLLDAGIGLEKTNVWLESEDEILAKAPNFTREQVKGWKGLFCTDGGWLAAAKAINAIGIFLQDKGVKFGFGDAGTFQQPLFAADGKTCIGLETTDGTKYFADKVVLAAGAWSPTLVDLEDQCVSKAWVFAHIQLTPKEADAYKNVPVVYDGEYGFFFEPDEYGVIKVCDEFPGFSRFKLHQPYGAASPKMISVPRSHAKHPTDTYPDASEVTIRKAIARFLPEFKDKELFNRTMCWCTDTADSNLLICEHPKWKNFILATGDSGHSFKLLPNIGKYVVELLEGSLSQEMAGAWRWRPGGDALRSRRGAPAKDLAEMPGWKHDAHL

Columns and labels:
[1] = target: T1, α-fructosyl-valyl-histidyl-leucyl-threon …; details: for αF6P oxidation activity: scale: relative value
[2] = target: T2, α-fructosyl-valyl-histidine

Sequence of hemoglobin A1c, P68871 (P68871 2-147, chain 1 of 2): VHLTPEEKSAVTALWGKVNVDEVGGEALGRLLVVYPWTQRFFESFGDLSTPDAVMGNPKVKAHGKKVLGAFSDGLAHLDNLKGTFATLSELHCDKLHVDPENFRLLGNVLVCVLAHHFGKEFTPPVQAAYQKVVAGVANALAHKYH
Sequence of hemoglobin A1c, P68871 (chain, as listed by the source, chain 2 of 2): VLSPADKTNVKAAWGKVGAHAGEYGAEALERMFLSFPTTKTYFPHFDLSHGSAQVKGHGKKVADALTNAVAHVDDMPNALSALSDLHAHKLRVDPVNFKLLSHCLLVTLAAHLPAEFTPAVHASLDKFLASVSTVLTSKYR

Protein	Specific activity (U/mg), 1 mM αF6P [1]	αF6P oxidation activity [1]	Specific activity (U/mg), 1 mM αFVH [2]	also measured
B1	0 U/mg	0	16.5 U/mg	ΔA at 751 nm (hydrogen peroxide generated upon oxidation of the HbA1c β-chain amino terminus) against HbA1c concentration; heat-treated sample (hemoglobin A1c, P68871): When Reagent C2 was used, however, no correlation was observed between the HbA1c concentration and ΔA; αFVH oxidation activity [2]: CFP-T7 exhibited αFV oxidation activity and αFVH oxidation activity
B2	–	0.0316	–	αFVH oxidation activity [2]: exhibited αF6P oxidation activity, in addition αFV oxidation activity and αFVH oxidation activity
B3	0.795 U/mg	20.8	4.05 U/mg	–
B4	4.27 U/mg	–	1.9 U/mg	ΔA at 751 nm (hydrogen peroxide generated upon oxidation of the HbA1c β-chain amino terminus) against HbA1c concentration; heat-treated sample (hemoglobin A1c, P68871): When Reagent C1 was used, a good correlation was established between the HbA1c concentration and ΔA; ΔA at 751 nm against HbA1c concentration; acid-treated sample (Reagent D1 or D2, Reagent F1) (hemoglobin A1c, P68871): In both cases where the sample was diluted with either Reagent D1 or Reagent D2, a good correlation was established between the HbA1c concentration and ΔA; specific activity on αF6P, fold over FAOAo2 (Comparative Example 2) [1]: 1.940 times (Amadoriase 25/Comparative Example 2); αF6P oxidation activity ratio (relative value (CFP-T7-H28 = 100)) [1]: 206
B5	–	0.0341	–	–
B6	0.85 U/mg	20.5	4.28 U/mg	αF6P oxidation activity ratio (relative value (CFP-T7-H20 = 100)) [1]: 100
B7	0.018 U/mg	–	1.62 U/mg	specific activity on αF6P, fold over PnFX (Comparative Example 3) [1]: 2 times (Amadoriase 26/Comparative Example 3)
B8	5.3 U/mg	–	–	ΔA at 751 nm against HbA1c concentration; cationic-surfactant-treated sample (Reagent G1 or G2) (hemoglobin A1c, P68871): In both cases where the sample was diluted with either Reagent G1 or Reagent G2, a good correlation was established between the HbA1c concentration and ΔA
B9	1.12 U/mg	–	–	ΔA at 751 nm against HbA1c concentration; acid-treated sample (Reagent D1, Reagent F2) (hemoglobin A1c, P68871): Amadoriase 28 from EFP-T5 exhibiting high specific activity on αF6P was also found to act directly on HbA1c (FIG. 6-3)
